This series concerns the target Glu14 (UniProt position 14, GAILAEVIGTT). Kind of series: NMR.
Where [1] appears, read: TPP+-bound, cited from earlier work.

We go through two substances from PMC8857205.

By pKa is commonly meant the pH at which an ionisable group is half protonated. With “EmrE (multidrug transporter, small multidrug resistance family), wild type (Escherichia coli)”, under setting [1], the pKa is 6.8 ± 0.1. For S64V-EmrE (Escherichia coli; S64V), the pKa reads like this: (45 °C, 20 mM NaCl plus buffer salts (total ionic strength not stated), 50 mM sodium acetate, 50 mM MOPS, 50 mM MES, 50 mM bicine, 2 mM TCEP, 0.01% DSS, F4-TPP+-bound (saturated), folded dimer in bicelles) 6.9 ± 0.1; under setting [1], 7.0 ± 0.1.
